Numbering of substitutions follows the chain as printed. Each block holds one binder with its values, some of them ahead of it.
Key:
[1] = target: T1, cynomolgus (Macaca fascicularis) ST2L extracellular domain with C-terminal His6 tag (Macaca fascicularis (cynomolgus), UniProt Q01638 19-321 (human entry)); assay: SPR, mAb captured, ST2L-ECD in solution
T1 construct: also called cyno ST2L-ECD; cynoST2L-ECD
T1 chain: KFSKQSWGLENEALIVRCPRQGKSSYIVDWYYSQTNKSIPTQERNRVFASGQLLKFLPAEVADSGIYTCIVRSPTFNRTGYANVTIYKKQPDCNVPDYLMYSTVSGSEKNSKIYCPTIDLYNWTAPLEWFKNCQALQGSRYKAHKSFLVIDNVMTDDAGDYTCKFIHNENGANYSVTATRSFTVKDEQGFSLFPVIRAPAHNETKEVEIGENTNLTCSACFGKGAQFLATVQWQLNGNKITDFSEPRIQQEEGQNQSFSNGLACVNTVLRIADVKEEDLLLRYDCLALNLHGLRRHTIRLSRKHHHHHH

[2] = target: T2, human ST2L extracellular domain with C-terminal His6 tag (human, UniProt Q01638 19-328); assay: SPR, mAb captured, ST2L-ECD in solution
T2 construct: also called huST2L-ECD; ST2L-ECD
T2 sequence: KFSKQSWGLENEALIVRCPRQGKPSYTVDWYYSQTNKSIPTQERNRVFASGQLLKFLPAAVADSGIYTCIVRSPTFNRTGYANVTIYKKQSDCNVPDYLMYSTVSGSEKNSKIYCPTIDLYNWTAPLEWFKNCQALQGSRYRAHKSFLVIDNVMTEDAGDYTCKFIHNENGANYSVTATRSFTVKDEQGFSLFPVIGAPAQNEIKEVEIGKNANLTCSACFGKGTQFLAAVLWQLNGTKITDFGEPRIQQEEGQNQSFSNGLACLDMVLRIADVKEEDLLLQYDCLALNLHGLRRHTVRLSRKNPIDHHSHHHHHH

[3] = target: T3, human ST2L, full length, on cells (human, UniProt Q01638 19-556); assay: cell-based or functional assay
T3 sequence: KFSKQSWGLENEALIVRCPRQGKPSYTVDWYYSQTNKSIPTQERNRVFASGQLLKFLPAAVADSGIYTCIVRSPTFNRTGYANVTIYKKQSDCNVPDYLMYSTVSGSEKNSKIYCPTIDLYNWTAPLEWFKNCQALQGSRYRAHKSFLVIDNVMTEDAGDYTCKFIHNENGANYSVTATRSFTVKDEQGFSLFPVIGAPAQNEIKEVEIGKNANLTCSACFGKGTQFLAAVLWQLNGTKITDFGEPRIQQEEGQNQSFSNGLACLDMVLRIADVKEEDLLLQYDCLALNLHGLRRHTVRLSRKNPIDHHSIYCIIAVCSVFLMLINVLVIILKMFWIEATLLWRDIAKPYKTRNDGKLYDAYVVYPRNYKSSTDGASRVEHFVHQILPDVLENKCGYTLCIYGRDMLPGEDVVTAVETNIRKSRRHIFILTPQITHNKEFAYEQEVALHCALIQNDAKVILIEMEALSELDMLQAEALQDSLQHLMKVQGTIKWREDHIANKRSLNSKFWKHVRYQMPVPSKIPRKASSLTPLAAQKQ

[4] = target: T2, human ST2L extracellular domain with …; assay: RLB ELISA: biotinylated IL-33 on coated huST2L-ECD, antibody titrated
Description: 96-well plate was coated with 50 μl of 4 μg/ml human ST2L-ECD (amino acids 19-328 of SEQ ID NO: 1) or 2 μg/ml cyno ST2L-ECD (amino acids 19-321 of SEQ ID NO: 2) having C-terminal His₆ tag in bicarbonate buffer at 4° C. for 16 hrs. All subsequent steps were performed at room temperature. Plate was blocked with 200 μl blocking buffer, and was washed 3 times with 300 μl of wash buffer containing PBS+0.05% Tween. 30 μl of various dilutions of anti-ST2L mAbs were added to the wells and incubated for 1 hour. For human receptor-ligand binding assay 20 μl of biotinylated human IL-33 (residues 112-270 of SEQ ID NO: 3) was added at 100 ng/ml final concentration and incubated for 30 minutes. For cyno receptor-ligand binding assay 20 μl of biotinylated cyno IL-33 (residues 112-269 of SEQ ID NO: 4) was added at 200 ng/ml final concentration and incubated for 30 minutes. The plate was washed 3 times with 300 μl of wash buffer. 50 μl of 0.2 μg/ml Streptavidin-HRP (Jackson Immunoresearch) was added and incubated for 30 min. The plate was washed 3 times with 300 μl of wash buffer containing PBS+0.05% Tween. 50 μl of TMB substrate (EMD Biosciences) was added to each well. Reaction was stopped by the addition of 100 μl of 0.2N Sulfuric Acid. OD450 were measured using Envision plate reader (Perkin Elmer).

[5] = target: T1, cynomolgus (Macaca fascicularis) ST2L …; assay: ProteOn SPR, mAb captured, ST2L-ECD in solution
Description: (§1) The affinities were analyzed by ProteOn. The experiments were performed at 25° C. using ProteOn's PBS-T-E buffer (PBS, 0.005% P20 and 3 mM EDTA) as running buffer. […] Mab capture was followed by injection of ST2L-ECD from 0.024-15 nM (5-fold dilutions) for 4 min (200 μL at 50 μL/min). The dissociation was monitored for 30 minutes for all reaction. Regeneration was performed using two 15 sec pulses of 10 mM glycine pH1.5. The data was fitted to a 1:1 with baseline drift model.
(§2) Association rates for the samples are fast, the langmuir with mass transfer model was used for curve fitting and estimation of Affinity. All of the samples had faster off rates than the parental clone and control Mab. The difference in off rate was the primary contributor to the lower affinity of the HFA variants when compared to the parent antibody.

[6] = target: T2, human ST2L extracellular domain with …; assay: ProteOn SPR, mAb captured, ST2L-ECD in solution
Description: as §1, §2

Kd [1]: 0.009 nM
koff [1]: 0.00014 s⁻¹
kon [1]: 1.6e+07 M⁻¹ s⁻¹
Kd [2]: 0.016 nM
koff [2]: 9.53e-05 s⁻¹
kon [2]: 5.8e+06 M⁻¹ s⁻¹
RGA IC50 [3]: 0.6 µg/mL
IC50 [4]: 0.39 µg/mL
B1: STLM220 (antibody, V domains shown)
VH: EVQLLESGGGLVQPGGSLRLSCAASGFTFSFYDMFWVRQAPGKGLEWVSDIRGEGGGTAYADSVKGRFTISRDNSKNTLYLQMNSLRAEDTAVYYCARDPWSTEGSFFVLDYWGQGTLVTVSS
VL: EIVLTQSPATLSLSPGERATLSCRASQSVDDDLAWYQQKPGQAPRLLIYDASNRATGIPARFSGSGSGTDFTLTISSLEPEDFAVYYCQQYIGAPITFGQGTKVEIK
notes: frameworks VH3-23 / Vk-L6

Kd [5]: 0.111 nM
koff [5]: 0.00656 s⁻¹
kon [5]: 5.88e+07 M⁻¹ s⁻¹
Kd [6]: 0.0473 nM
koff [6]: 0.000967 s⁻¹
kon [6]: 2.04e+07 M⁻¹ s⁻¹
B2: STLM203 (antibody, V domains shown)
VH: EVQLVQSGAEVKKPGATVKISCKVSAFNIKDDYMHWVQQAPGKGLEWMGRIDPAIGNTEYAEKFQGRVTITADTSTDTAYMELSSLRSEDTAVYYCATGDFYAMDYWGQGTLVTVSS
VL: DIQMTQSPSSLSASVGDRVTITCITNTDIDDVIHWYQQKPGKAPKLLIYEGNTLRPGVPSRFSGSGSGTDFTLTISSLQPEDFATYYCLQSDNMLTFGQGTKLEIK
notes: C2494 HFA mAb: VH STLH194 + VL STLL274 (O12)

Kd [5]: 0.0845 nM
koff [5]: 0.00657 s⁻¹
kon [5]: 7.78e+07 M⁻¹ s⁻¹
Kd [6]: 0.0414 nM
koff [6]: 0.000897 s⁻¹
kon [6]: 2.17e+07 M⁻¹ s⁻¹
B3: STLM199 (antibody, V domains shown)
VH: B2 VH
VL: EIVMTQSPATLSVSPGERATLSCITNTDIDDVIHWYQQKPGQAPRLLIYEGNTLRPGIPARFSGSGSGTEFTLTISSLQSEDFAVYYCLQSDNMLTFGQGTKLEIK
notes: C2494 HFA mAb: VH STLH194 + VL STLL278 (L2)

Kd [5]: 0.666 nM
koff [5]: 0.0666 s⁻¹
kon [5]: 1e+08 M⁻¹ s⁻¹
Kd [6]: 0.292 nM
koff [6]: 0.0247 s⁻¹
kon [6]: 8.46e+07 M⁻¹ s⁻¹
B4: STLM191 (antibody, V domains shown)
VH: B2 VH with E1Q, T17S, I20V, Q38R, E62P, G66D, I70M, A72E
VL: B2 VL with S10T, D70E, E81D
notes: C2494 HFA mAb: VH STLH195 + VL STLL276 (L12)

Kd [5]: 0.205 nM
koff [5]: 0.0205 s⁻¹
kon [5]: 1e+08 M⁻¹ s⁻¹
Kd [6]: 0.0813 nM
koff [6]: 0.00241 s⁻¹
kon [6]: 2.97e+07 M⁻¹ s⁻¹
B5: STLM204 (antibody, V domains shown)
VH: B2 VH
VL: B2 VL with A43V, F83V
notes: C2494 HFA mAb: VH STLH194 + VL STLL273 (A20)

Kd [5]: 0.999 nM
koff [5]: 0.0999 s⁻¹
kon [5]: 1e+08 M⁻¹ s⁻¹
Kd [6]: 0.42 nM
koff [6]: 0.00885 s⁻¹
kon [6]: 2.11e+07 M⁻¹ s⁻¹
B6: STLM192 (antibody, V domains shown)
VH: B2 VH with E1Q, T17S, I20V, Q38R, E62P, G66D, I70M, A72E
VL: B2 VL with L11V
notes: C2494 HFA mAb: VH STLH195 + VL STLL275 (L5)

Kd [5]: 0.134 nM
koff [5]: 0.011 s⁻¹
kon [5]: 8.23e+07 M⁻¹ s⁻¹
Kd [6]: 0.0608 nM
koff [6]: 0.00143 s⁻¹
kon [6]: 2.35e+07 M⁻¹ s⁻¹
B7: STLM200 (antibody, V domains shown)
VH: B2 VH
VL: B2 VL with M4L, S10F, D70E
notes: C2494 HFA mAb: VH STLH194 + VL STLL277 (L8)

Kd [5]: 1.02 nM
koff [5]: 0.102 s⁻¹
kon [5]: 1e+08 M⁻¹ s⁻¹
Kd [6]: 0.534 nM
koff [6]: 0.0534 s⁻¹
kon [6]: 1e+08 M⁻¹ s⁻¹
B8: STLM190 (antibody, V domains shown)
VH: B2 VH with E1Q, T17S, I20V, Q38R, E62P, G66D, I70M, A72E
VL: B2 VL with M4L, S10F, D70E
notes: C2494 HFA mAb: VH STLH195 + VL STLL277 (L8)

Kd [5]: 0.134 nM
koff [5]: 0.0104 s⁻¹
kon [5]: 7.75e+07 M⁻¹ s⁻¹
Kd [6]: 0.0529 nM
koff [6]: 0.00119 s⁻¹
kon [6]: 2.24e+07 M⁻¹ s⁻¹
B9: STLM202 (antibody, V domains shown)
VH: B2 VH
VL: B2 VL with L11V
notes: C2494 HFA mAb: VH STLH194 + VL STLL275 (L5)

Kd [5]: 0.932 nM
koff [5]: 0.0932 s⁻¹
kon [5]: 1e+08 M⁻¹ s⁻¹
Kd [6]: 0.267 nM
koff [6]: 0.0127 s⁻¹
kon [6]: 4.77e+07 M⁻¹ s⁻¹
B10: STLM193 (antibody, V domains shown)
VH: B2 VH with E1Q, T17S, I20V, Q38R, E62P, G66D, I70M, A72E
VL: B2 VL
notes: C2494 HFA mAb: VH STLH195 + VL STLL274 (O12)

Kd [5]: 0.1 nM
koff [5]: 0.00404 s⁻¹
kon [5]: 4.04e+07 M⁻¹ s⁻¹
Kd [6]: 0.0401 nM
koff [6]: 0.000695 s⁻¹
kon [6]: 1.73e+07 M⁻¹ s⁻¹
B11: STLM205 (antibody, V domains shown)
VH: B2 VH
VL: B2 VL with L73F, F83I
notes: C2494 HFA mAb: VH STLH194 + VL STLL272 (O18)

Kd [5]: 1.9 nM
koff [5]: 0.19 s⁻¹
kon [5]: 1e+08 M⁻¹ s⁻¹
Kd [6]: 0.703 nM
koff [6]: 0.0703 s⁻¹
kon [6]: 1e+08 M⁻¹ s⁻¹
B12: STLM194 (antibody, V domains shown)
VH: B2 VH with E1Q, T17S, I20V, Q38R, E62P, G66D, I70M, A72E
VL: B2 VL with A43V, F83V
notes: C2494 HFA mAb: VH STLH195 + VL STLL273 (A20)

Kd [5]: 0.232 nM
koff [5]: 0.00688 s⁻¹
kon [5]: 2.97e+07 M⁻¹ s⁻¹
Kd [6]: 0.0885 nM
koff [6]: 0.00162 s⁻¹
kon [6]: 1.83e+07 M⁻¹ s⁻¹
B13: STLM197 (antibody, V domains shown)
VH: B2 VH
VL: B2 VL with M94L
notes: C2494 HFA mAb: VH STLH194 (IGHV1-f*01) + VL STLL280 (O12b)

Kd [5]: 0.719 nM
koff [5]: 0.0719 s⁻¹
kon [5]: 1e+08 M⁻¹ s⁻¹
Kd [6]: 0.271 nM
koff [6]: 0.00673 s⁻¹
kon [6]: 2.49e+07 M⁻¹ s⁻¹
B14: STLM195 (antibody, V domains shown)
VH: B2 VH with E1Q, T17S, I20V, Q38R, E62P, G66D, I70M, A72E
VL: B2 VL with L73F, F83I
notes: C2494 HFA mAb: VH STLH195 + VL STLL272 (O18)

Kd [5]: 0.116 nM
koff [5]: 0.0041 s⁻¹
kon [5]: 3.55e+07 M⁻¹ s⁻¹
Kd [6]: 0.0484 nM
koff [6]: 0.000852 s⁻¹
kon [6]: 1.76e+07 M⁻¹ s⁻¹
B15: STLM201 (antibody, V domains shown)
VH: B2 VH
VL: B2 VL with S10T, D70E, E81D
notes: C2494 HFA mAb: VH STLH194 + VL STLL276 (L12)

Kd [5]: 1.1 nM
koff [5]: 0.11 s⁻¹
kon [5]: 1e+08 M⁻¹ s⁻¹
Kd [6]: 0.473 nM
koff [6]: 0.0159 s⁻¹
kon [6]: 3.37e+07 M⁻¹ s⁻¹
B16: STLM187 (antibody, V domains shown)
VH: B2 VH with E1Q, T17S, I20V, Q38R, E62P, G66D, I70M, A72E
VL: B2 VL with M94L
notes: C2494 HFA mAb: VH STLH195 (IGHV1-24*01) + VL STLL280 (O12b)

From US20170066831A1 (Janssen / Centocor, published 2017)
